Data: patent US20110091971A1, “Differentiation of Pluripotent Stem Cells” (priority 2008, published 2011)

Experiments:
[1] = test system: Human Embryonic Stem Cells (H1 hESC line); test: RT-PCR of PDX1 and CDX2 at conclusion of third step of differentiation (Example 12); format: cell-based; conditions: end of third step; peptide given during first step
Excerpt: At the conclusion of the first step of the differentiation protocol, replicate sets of parallel wells for each treatment group were subjected to further step-wise differentiation. It is important to note that after the first three days, all wells undergoing continuing culture and differentiation received the same treatment. The protocol for this continuing differentiation is described below. […]
RT-PCR Analysis: RNA samples were purified by binding to a silica-gel membrane (Rneasy Mini Kit, Qiagen, CA) in the presence of an ethanol-containing, high-salt buffer followed by washing to remove contaminants. […] Yield and purity were assessed by A260 and A280 readings on a spectrophotometer. […]
Unless otherwise stated, all reagents were purchased from Applied Biosystems. […] For each primer/probe set, a Ct value was determined as the cycle number at which the fluorescence intensity reached a specific value in the middle of the exponential region of amplification. Relative gene expression levels were calculated using the comparative Ct method. […] The normalized amount of target was calculated as 2-ΔCt, assuming amplification to be 100% efficiency. […]

[2] = test system: Human Embryonic Stem Cells (H1 hESC line); test: High content analysis of cell number, PDX1 and CDX2 protein expression at conclusion of third step of differentiation (Example 12); format: cell-based; conditions: end of third step; peptide given during first step; compared with commercial activin A or ACTN1
Method: At the conclusion of the first step of the differentiation protocol, replicate sets of parallel wells for each treatment group were subjected to further step-wise differentiation. It is important to note that after the first three days, all wells undergoing continuing culture and differentiation received the same treatment. The protocol for this continuing differentiation is described below.
During the second step of differentiation, cultures were grown for two days in DMEM:F12 medium (Invitrogen; Cat #11330-032) supplemented with 2% Albumin Bovine Fraction V, Fatty Acid Free (FAF BSA) (MP Biomedicals, Inc; Cat #152401), 50 ng/ml FGF7 (PeproTech; Cat #100-19), and 250 nM cyclopamine (Calbiochem; Cat #239804). Medium in each well was aspirated and replaced with a fresh aliquot (0.5 ml) on both days.
Step 3 of the differentiation protocol was carried out over four days. Cells were fed daily by aspirating medium from each well and replacing with a fresh aliquot (0.5 ml) of DMEM-high glucose (Invitrogen; Cat #10569) supplemented with 1% B27 (Invitrogen; Cat #17504-044), 50 ng/ml FGF7, 100 ng/ml Noggin (R&D Systems; Cat #3344-NG), 250 nM KAAD-cyclopamine (Calbiochem; Cat #239804), and 2 μM all-trans retinoic acid (RA) (Sigma-Aldrich; Cat #R2625). At the conclusion of the third step of differentiation, cells from some wells were harvested for analysis by RT-PCR to measure markers of differentiation. Other culture wells were subjected to high content image analysis for protein expression levels of PDX1, a transcription factor correlated with pancreatic endoderm differentiation, and CDX2, a transcription factor associated with intestinal endoderm.
High Content Analysis: At the conclusion of three days of culture, assay plates were washed once with PBS (Invitrogen; Cat #14190), fixed with 4% paraformaldehyde (Alexis Biochemical; Cat #ALX-350-011) at room temperature for 20 minutes, then washed three times with PBS and permeabilized with 0.5% Triton X-100 (Sigma; Cat #T8760-2) for 20 minutes at room temperature. Cells were washed again three times with PBS and blocked with 4% chicken serum (Invitrogen; Cat #16110082) in PBS for 30 minutes at room temperature. Primary antibody (goat anti-human SOX17; R&D Systems; Cat #AF1924) was diluted 1:100 in 4% chicken serum and added to each well for two hours at room temperature. […]
Imaging was performed using an IN Cell Analyzer 1000 (GE Healthcare) utilizing the 51008bs dichroic for cells stained with Hoechst 33342 and Alexa Fluor 488. […] Segmentation for the nuclei was determined based on gray-scale levels (baseline range 100-300) and nuclear size. Averages and standard deviations were calculated for each replicate data set. […]

Molecule | RT-PCR results for PDX1 and CDX2 [1] | cell numbers [2] | protein expression of PDX1 and CDX2 [2]
ACTN4: activin A variant peptide, SEQ ID 5 (protein) GLECDGKVNLCCKKQLFVSFKDIGWNDWIIAPSGYHANHCSGLCPSHIAGTSGSSLSFHSTVINHYRMRGHSPFSDMGACCVPTKLRPMSMLYYDDGQNIIKKDIQNMIVEECGCS | in agreement | equivalent cell numbers | equivalent protein expression
ACTN48: activin A variant peptide, SEQ ID 49 (protein) GLECDGKVNLCCKKQNFVSFKDIGWNDWIIAPSGYHANECSGLCPSHIAGTSGSSLSFHSTVINHYRMRGHSPFANMGACCIPTKLRPMSMLYYDDGQNIIKKDIQNMIVEECGCS | in agreement | equivalent cell numbers | equivalent protein expression
